The record followed here is patent publication US20260265358A1 (BYOMASS, published 2026).

T1: Activin A (ligand of the Activin 2B Receptor/SMAD reporter assay) (UniProt P08476 311-426)
T1 sequence (looked up): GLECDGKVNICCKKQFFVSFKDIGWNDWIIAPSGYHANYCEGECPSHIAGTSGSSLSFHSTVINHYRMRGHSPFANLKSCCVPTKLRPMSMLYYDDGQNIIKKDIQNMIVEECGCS

T2: Human Activin A Fc (human, UniProt P03970 309-424 (pig entry))
T2 construct: also called human Activin A-Fc fusion; human Activin A-Fc antigen; not shown: Fc part
T2 sequence: T1 sequence (looked up)

T3: Human GDF10 (human, UniProt P55107 369-478)
T3 sequence (looked up): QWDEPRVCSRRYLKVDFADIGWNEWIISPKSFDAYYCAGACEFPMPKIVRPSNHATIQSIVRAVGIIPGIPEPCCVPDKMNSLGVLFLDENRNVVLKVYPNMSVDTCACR

T4: Activin B (UniProt P09529 293-407)
T4 sequence (looked up): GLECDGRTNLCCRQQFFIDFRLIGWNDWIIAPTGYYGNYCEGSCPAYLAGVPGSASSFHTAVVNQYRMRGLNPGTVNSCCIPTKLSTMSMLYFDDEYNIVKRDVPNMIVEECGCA

T5: BMP9 (UniProt Q9UK05 320-429)
T5 sequence (looked up): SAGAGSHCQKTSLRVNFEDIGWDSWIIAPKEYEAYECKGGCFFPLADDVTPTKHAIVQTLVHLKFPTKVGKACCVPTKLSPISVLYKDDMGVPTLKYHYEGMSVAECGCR

T6: BMP10 (UniProt O95393 317-424)
T6 sequence (looked up): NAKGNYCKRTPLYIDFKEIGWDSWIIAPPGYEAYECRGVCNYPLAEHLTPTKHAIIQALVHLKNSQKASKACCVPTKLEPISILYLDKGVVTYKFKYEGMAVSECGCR

T7: Human GDNF (human, UniProt P39905 78-211)
T7 sequence (looked up): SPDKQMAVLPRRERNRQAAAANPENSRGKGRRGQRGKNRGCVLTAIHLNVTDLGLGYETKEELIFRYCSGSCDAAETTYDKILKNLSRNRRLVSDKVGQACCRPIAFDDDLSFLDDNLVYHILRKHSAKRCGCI

T8: GDF15 Fc (UniProt Q99988 197-308, limits assumed)
T8 construct: not shown: Fc part
T8 sequence (looked up): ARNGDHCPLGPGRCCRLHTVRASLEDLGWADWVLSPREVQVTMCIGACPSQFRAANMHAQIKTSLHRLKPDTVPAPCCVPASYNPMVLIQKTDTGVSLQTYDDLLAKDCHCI

B1: anti-Activin A antibody Clone A (IgG) (antibody, V domains shown)
VH: QVQLVQSGAEVKKPGASVKVSCKASGYTFTGYYMHWVRQAPGQGLEWMGSINPSSGGTNYAQKFQGRVTMTTDTSTSTAYMELRSLRSDDTAVYYCARARDIAAAGLGAFDYWGQGTLVTVSS
VL: EIVLTQSPGTLSLSPGERATLSCRASQSVRSSYLAWYQQKPGQAPRLLIYGASSRATGIPDRFSGSGSGTDFTLTISRLEPEDFAVYYCQQYVSYPRTFGGGTKVEIKR
notes: IgG format; also called Antibody A
B2: anti-Activin A antibody Clone I (IgG) (antibody, V domains shown)
VH: QVQLVQSGAEVKKPGSSVKVSCKASGGTFSNYAISWVRQAPGQGLEWMGYIIPFFGTANYAQKFQGRVTITADESTSTAYMELSSLRSEDTAVYYCARGGSGYSTSWGSSLYWGQGTLVTVSS
VL: B1 VL with R30S, S54Y, Q90L, Y92S, V93G, S94V, Y95F, R97Y
notes: IgG format; also called Antibody I
B3: anti-Activin A antibody Clone E (IgG) (antibody, V domains shown)
VH: B1 VH with T30H, Y33N, S54Y, G57Y, N59I, T72R, T76I, R84S, S85R
VL: B1 VL
notes: IgG format; also called Antibody E
B4: anti-Activin A antibody Clone G (IgG) (antibody, V domains shown)
VH: B1 VH with G31S, M34I, S50A, N52Y, P53A, S54Y, G57D, F64L
VL: B1 VL with V93S, S94N
notes: IgG format; also called Antibody G
B5: anti-Activin A antibody Clone H (IgG) (antibody, V domains shown)
VH: B1 VH with Y33H, M34I, S50H, N52S, P53A, S54Y, G57T, F64L
VL: B1 VL with V93S, S94N
notes: IgG format; also called Antibody H
B6: anti-Activin A antibody Clone K (IgG) (antibody, V domains shown)
VH: QVQLVQSGAEVKKPGSSVKVSCKASGGTSSSYAISWVRQAPGQGLEWMGYIIPAFGTANYAQKFQGRVTITADESTSTAYMELSSLRSEDTAVYYCARPVRTYPLGKYFYHWGQGTLVTVSS
VL: EIVLTQSPATLSLSPGERATLSCRASQSVSSYLAWYQQKPGQAPRLLIYDASNRATGIPARFSGSGSGTDFTLTISSLEPEDFAVYYCQQDSIFPPYTFGGGTKVEIKR
notes: IgG format; also called Antibody K
B7: anti-Activin A antibody Clone F (IgG) (antibody, V domains shown)
VH: B1 VH with Y33H, M34I, A40V, S50V, N52S, P53A, S54Y, G57D, F64L, A105L
VL: EIVLTQSPATLSVSPGERATLSCRASQSVSSNLAWYQQKPGQAPRLLIYGASDRATGIPARFSGSGSGTEFTLTISSLQSEDFAVYYCIQYSNYPRTFGGGTKVEIKR
notes: IgG format; also called Antibody F

Residue numbers refer to the chain shown, from its start. Where “and” joins values, the source holds several entries; their conditions need not be identical. Equal values may be shown once. Where only a bound is given, the exact number is not on record here.

Chain of Human GDF11 (O95390 299-407 limits assumed): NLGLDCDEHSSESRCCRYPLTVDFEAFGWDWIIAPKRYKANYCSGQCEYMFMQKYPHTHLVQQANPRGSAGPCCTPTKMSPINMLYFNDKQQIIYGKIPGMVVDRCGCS

The target in one experiment is T1, Activin A (ligand of the Activin 2B …). As to the kind of experiment: cell-based or functional assay.
For B1, the “Activin A-ActRIIB SMAD IC50 pM” value was 324 pM and 282 pM and 361 pM.
For B2, the “Activin A-ActRIIB SMAD IC50 pM” value is 1.09 pM.
With B3, the “Activin A-ActRIIB SMAD IC50 pM” value was 16.5 pM.
For B4, the “Activin A-ActRIIB SMAD IC50 pM” value worked out at 15.8 pM.
In the case of B5, the “Activin A-ActRIIB SMAD IC50 pM” value is 36.9 pM.

The target in another experiment is T2, Human Activin A Fc. The experiment in a line: Octet BLI, IgG, avid. On the procedure:
ForteBio affinity measurements were performed on an Octet HTX generally as previously described (see, e.g., Estep et al, Mabs 5(2), 270-278 (2013)). Briefly, ForteBio affinity measurements were performed by loading IgGs on-line onto AHC sensors. Sensors were equilibrated off-line in assay buffer for 30 min and then monitored on-line for 60 seconds for baseline establishment. Sensors with loaded IgGs were exposed to 100 nM antigen for 3 minutes, and afterwards were transferred to assay buffer for 3 min for off-rate measurement. All kinetics were analyzed using the 1:1 binding model.
Binding affinity and epitope binning assays were performed with a ForteBio instrument as described herein.
Consider B6, for which the Kd came out at 0.43 nM.
Regarding B1, the Kd was found to be 0.81 nM.
In turn, B7 had a dissociation constant (Kd) of 0.492 nM. Against the preceding molecule, the Kd is about 1.6-fold lower.
B2 came in with a Kd of 0.536 nM. The Kd values of the last two molecules are within 1.5-fold of each other.
Turning to B3, the affinity, expressed as Kd, was 0.551 nM.
On the same count and under the same terms, as for B4, the figure is 0.68 nM; as for B5, 0.666 nM.

Another experiment concerns the target Human GDF11 (human, UniProt O95390 299-407). As to the kind of experiment: Octet BLI, IgG, avid.
Regarding B6, the binding result was “no binding (tested: 100 nM antigen)”.
Same read-out and setting: the value for B1 was “no binding (tested: 100 nM antigen)”.
B7 showed a Kd of 18.7 nM. In other words, the double-digit nanomolar range.
On to B2, for which the binding result is on record as “no binding (tested: 100 nM antigen)”.
B3 yielded a Kd of 27.3 nM. That is a double-digit nanomolar value.
Turning to B4, the binding result was “no binding (tested: 100 nM antigen)”.
Regarding B5, the binding result is recorded as “no binding (tested: 100 nM antigen)”.

In the next experiment the target is T3, Human GDF10. As to the kind of experiment: Octet BLI, IgG, avid.
On to B6, for which the binding result is “no binding (tested: 100 nM antigen)”.
In the case of B1, the binding result is given as “no binding (tested: 100 nM antigen)”.
Same read-out and setting: the value for B7 was “no binding (tested: 100 nM antigen)”; that for B2 was “no binding (tested: 100 nM antigen)”; that for B3 was “no binding (tested: 100 nM antigen)”.
Regarding B4, the binding result is reported as “no binding (tested: 100 nM antigen)”.
With B5, the binding result is “no binding (tested: 100 nM antigen)”.

A further experiment deals with T4, Activin B. As to the kind of experiment: Octet BLI, IgG, avid.
For the molecule B6, the binding result is listed as “no binding (tested: 100 nM antigen)”.
On the same count and under the same terms, the value for B1 was “no binding (tested: 100 nM antigen)”.
On to B7, for which the Kd amounted to 80.1 nM.
With B2, the binding result is reported as “no binding (tested: 100 nM antigen)”.
On to B4, for which the binding result is “no binding (tested: 100 nM antigen)”.

The target in a further experiment is Human GDF8 (human, UniProt O14793 267-375). The experiment in a line: Octet BLI, IgG, avid.
As for B6, the binding result is on record as “no binding (tested: 100 nM antigen)”.
For B1, the binding result is reported as “no binding (tested: 100 nM antigen)”.
On to B7, for which the binding result is reported as “no binding (tested: 100 nM antigen)”.
For the molecule B2, the binding result is “no binding (tested: 100 nM antigen)”.
On the same count and under the same terms, as for B3, the entry is “no binding (tested: 100 nM antigen)”; as for B4, “no binding (tested: 100 nM antigen)”.
On the same count and under the same terms, the value for B5 was “no binding (tested: 100 nM antigen)”.

In another experiment the target is T5, BMP9. The experiment in a line: Octet BLI, IgG, avid.
Consider B6, for which the binding result is given as “no binding (tested: 100 nM antigen)”.
For B1, the binding result was “no binding (tested: 100 nM antigen)”.
As for B7, the binding result was “no binding (tested: 100 nM antigen)”.
On the same count and under the same terms, the value for B2 was “no binding (tested: 100 nM antigen)”; that for B3 was “no binding (tested: 100 nM antigen)”; that for B4 was “no binding (tested: 100 nM antigen)”.
Same read-out and setting: as for B5, the entry is “no binding (tested: 100 nM antigen)”.

A further experiment has as its target T6, BMP10. The experiment in a line: Octet BLI, IgG, avid.
Take B6: the binding result is “no binding (tested: 100 nM antigen)”.
On to B1, for which the binding result was “no binding (tested: 100 nM antigen)”.
With B7, the binding result is recorded as “no binding (tested: 100 nM antigen)”.
With B2, the binding result is “no binding (tested: 100 nM antigen)”.
The same measure, in the same setting: as for B3, the entry is “no binding (tested: 100 nM antigen)”.
Still for that read-out and setting: the value for B4 was “no binding (tested: 100 nM antigen)”; that for B5 was “no binding (tested: 100 nM antigen)”.

The target in a further experiment is T7, Human GDNF. As to the kind of experiment: Octet BLI, IgG, avid.
With B6, the binding result was “no binding (tested: 100 nM antigen)”.
Turning to B1, the binding result is on record as “no binding (tested: 100 nM antigen)”.
Still for that read-out and setting: the value for B7 was “no binding (tested: 100 nM antigen)”.
On the same count and under the same terms, the value for B2 was “no binding (tested: 100 nM antigen)”; that for B3 was “no binding (tested: 100 nM antigen)”; that for B4 was “no binding (tested: 100 nM antigen)”.
B5: the binding result is recorded as “no binding (tested: 100 nM antigen)”.

The next experiment deals with T8, GDF15 Fc. As to the kind of experiment: Octet BLI, IgG, avid.
For B6, the binding result is “no binding (tested: 100 nM antigen)”.
On to B1, for which the binding result is on record as “no binding (tested: 100 nM antigen)”.
On the same count and under the same terms, the value for B7 was “no binding (tested: 100 nM antigen)”; that for B2 was “no binding (tested: 100 nM antigen)”; that for B3 was “no binding (tested: 100 nM antigen)”.
For B4, the binding result is given as “no binding (tested: 100 nM antigen)”.
Same read-out and setting: the value for B5 was “no binding (tested: 100 nM antigen)”.

The target in the next experiment is T4, Activin B. As to the kind of experiment: cell-based or functional assay.
Regarding B6, the “Activin B-ActRIIB SMAD IC50 pM” value was determined as 30700 pM.
Take B1: the “Activin B-ActRIIB SMAD IC50 pM” value is more than 100000 pM.
Same read-out and setting: the value for B7 was 24900 pM.
On the same count and under the same terms, the value for B2 was 52400 pM.
On the same count and under the same terms, the value for B3 was 83600 pM; that for B4 was more than 100000 pM; that for B5 was more than 100000 pM.
